Measured values: patent US20160002357A1 (Pfizer, published 2016)

What follows are binders tested against T1, P-cadherin-ECD1-3-Fc protein (human P-cadherin-Fc) (human, UniProt P22223 108-440) (assay: phage scFv ELISA, coated P-cadherin-ECD1-3-Fc).
T1 construct: Construct was expressed with signal peptide and pro-peptide (PACE co-transfected to process the propeptide); not shown: hinge and CH2 and CH3 domains of human IgG1
Method: P-cadherin-ECD1-3-Fc protein or negative control protein was coated overnight at 4° C. on 96-well Nunc Maxisorp® plates (Thermo Fisher Scientific, Madison, Conn.) at a concentration of 2 μg/mL in PBS+Ca²⁺ and Mg²⁺. Plates were washed three times using PBS+Ca²⁺ and Mg²⁺ and blocked for 1 hour at room temperature in 3% milk/PBS+Ca²⁺ and Mg²⁺. Phage samples prepared as described above were added to the blocked plates for 1 hour at room temperature. Plates were washed three times with PBS+Ca²⁺ and Mg²⁺ prior to the addition of secondary antibody (anti M13-HRP 1:2000, GE Healthcare, Piscataway, N.J.). Plates were incubated for a further 1 hour at room temperature and washed six times with PBS+Ca²⁺ and Mg²⁺. Signal was developed using TMB (SurModics, Eden Prairie, Minn.), the reaction stopped with H₂SO₄ and the absorbance read at 450 nm on an EnVision® plate reader (Perkin Elmer, Waltham, Mass.).

T1 sequence (P22223 108-440): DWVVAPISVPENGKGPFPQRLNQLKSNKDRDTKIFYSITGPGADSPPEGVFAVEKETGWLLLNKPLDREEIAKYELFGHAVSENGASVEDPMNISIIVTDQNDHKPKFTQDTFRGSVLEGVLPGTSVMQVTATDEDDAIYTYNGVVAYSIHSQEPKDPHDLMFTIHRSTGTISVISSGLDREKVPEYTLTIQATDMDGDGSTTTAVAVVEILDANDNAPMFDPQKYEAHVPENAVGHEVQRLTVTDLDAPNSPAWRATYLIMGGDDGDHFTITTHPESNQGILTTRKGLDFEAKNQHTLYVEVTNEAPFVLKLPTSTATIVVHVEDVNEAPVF

Binder	% of binding of Clone #153 to human P-cadherin-Fc [%]	Human P-cadherin-Fc binding (OD450)	Z Score
anti-P-cadherin scFv 153 alanine-mutant H1.1-Ala (scFv, V domains shown, scFv on phage) VH: EVQLVQSGAEVKKPGASVKVSCKASAYTFTSYGISWVRQAPGQGLEWMGWISAYNGNTNYAQKLQGRVTMTTDTSTSTAYMELRSLRSDDTAVYYCATIDTANAFGIWGQGTMVTVSS VL: QSVLTQPPSVSAAPGQKVTISCSGSSSNIGNNYVSWYQQLPGTAPKLLIYDNNKRPSGIPDRFSGSKSGTSATLGITGLQTGDEADYYCGTWDSSLSGVVFGGGTKLTVL	135	1.79	0.7
anti-P-cadherin scFv 153 alanine-mutant H2.1-Ala (scFv, V domains shown, scFv on phage) VH: EVQLVQSGAEVKKPGASVKVSCKASGYTFTSYGISWVRQAPGQGLEWMGAISAYNGNTNYAQKLQGRVTMTTDTSTSTAYMELRSLRSDDTAVYYCATIDTANAFGIWGQGTMVTVSS VL: QSVLTQPPSVSAAPGQKVTISCSGSSSNIGNNYVSWYQQLPGTAPKLLIYDNNKRPSGIPDRFSGSKSGTSATLGITGLQTGDEADYYCGTWDSSLSGVVFGGGTKLTVL	103	1.37	0.1
anti-P-cadherin scFv 153 alanine-mutant H1.10-Ala (scFv, V domains shown, scFv on phage) VH: EVQLVQSGAEVKKPGASVKVSCKASGYTFTSYGIAWVRQAPGQGLEWMGWISAYNGNTNYAQKLQGRVTMTTDTSTSTAYMELRSLRSDDTAVYYCATIDTANAFGIWGQGTMVTVSS VL: QSVLTQPPSVSAAPGQKVTISCSGSSSNIGNNYVSWYQQLPGTAPKLLIYDNNKRPSGIPDRFSGSKSGTSATLGITGLQTGDEADYYCGTWDSSLSGVVFGGGTKLTVL	161	2.13	1.3
anti-P-cadherin scFv 153 alanine-mutant H1.8-Ala (scFv, V domains shown, scFv on phage) VH: EVQLVQSGAEVKKPGASVKVSCKASGYTFTSYAISWVRQAPGQGLEWMGWISAYNGNTNYAQKLQGRVTMTTDTSTSTAYMELRSLRSDDTAVYYCATIDTANAFGIWGQGTMVTVSS VL: QSVLTQPPSVSAAPGQKVTISCSGSSSNIGNNYVSWYQQLPGTAPKLLIYDNNKRPSGIPDRFSGSKSGTSATLGITGLQTGDEADYYCGTWDSSLSGVVFGGGTKLTVL	27	0.36	-1.5
anti-P-cadherin scFv 153 alanine-mutant H1.4-Ala (scFv, V domains shown, scFv on phage) VH: EVQLVQSGAEVKKPGASVKVSCKASGYTATSYGISWVRQAPGQGLEWMGWISAYNGNTNYAQKLQGRVTMTTDTSTSTAYMELRSLRSDDTAVYYCATIDTANAFGIWGQGTMVTVSS VL: QSVLTQPPSVSAAPGQKVTISCSGSSSNIGNNYVSWYQQLPGTAPKLLIYDNNKRPSGIPDRFSGSKSGTSATLGITGLQTGDEADYYCGTWDSSLSGVVFGGGTKLTVL	177	2.33	1.6
anti-P-cadherin scFv 153 alanine-mutant H1.7-Ala (scFv, V domains shown, scFv on phage) VH: EVQLVQSGAEVKKPGASVKVSCKASGYTFTSAGISWVRQAPGQGLEWMGWISAYNGNTNYAQKLQGRVTMTTDTSTSTAYMELRSLRSDDTAVYYCATIDTANAFGIWGQGTMVTVSS VL: QSVLTQPPSVSAAPGQKVTISCSGSSSNIGNNYVSWYQQLPGTAPKLLIYDNNKRPSGIPDRFSGSKSGTSATLGITGLQTGDEADYYCGTWDSSLSGVVFGGGTKLTVL	129	1.71	0.6
anti-P-cadherin scFv 153 alanine-mutant H2.2-Ala (scFv, V domains shown, scFv on phage) VH: EVQLVQSGAEVKKPGASVKVSCKASGYTFTSYGISWVRQAPGQGLEWMGWASAYNGNTNYAQKLQGRVTMTTDTSTSTAYMELRSLRSDDTAVYYCATIDTANAFGIWGQGTMVTVSS VL: QSVLTQPPSVSAAPGQKVTISCSGSSSNIGNNYVSWYQQLPGTAPKLLIYDNNKRPSGIPDRFSGSKSGTSATLGITGLQTGDEADYYCGTWDSSLSGVVFGGGTKLTVL	166	2.2	1.4
anti-P-cadherin scFv 153 alanine-mutant H1.2-Ala (scFv, V domains shown, scFv on phage) VH: EVQLVQSGAEVKKPGASVKVSCKASGATFTSYGISWVRQAPGQGLEWMGWISAYNGNTNYAQKLQGRVTMTTDTSTSTAYMELRSLRSDDTAVYYCATIDTANAFGIWGQGTMVTVSS VL: QSVLTQPPSVSAAPGQKVTISCSGSSSNIGNNYVSWYQQLPGTAPKLLIYDNNKRPSGIPDRFSGSKSGTSATLGITGLQTGDEADYYCGTWDSSLSGVVFGGGTKLTVL	179	2.36	1.7
anti-P-cadherin scFv 153 alanine-mutant H1.6-Ala (scFv, V domains shown, scFv on phage) VH: EVQLVQSGAEVKKPGASVKVSCKASGYTFTAYGISWVRQAPGQGLEWMGWISAYNGNTNYAQKLQGRVTMTTDTSTSTAYMELRSLRSDDTAVYYCATIDTANAFGIWGQGTMVTVSS VL: QSVLTQPPSVSAAPGQKVTISCSGSSSNIGNNYVSWYQQLPGTAPKLLIYDNNKRPSGIPDRFSGSKSGTSATLGITGLQTGDEADYYCGTWDSSLSGVVFGGGTKLTVL	149	1.97	1
anti-P-cadherin scFv 153 alanine-mutant H1.5-Ala (scFv, V domains shown, scFv on phage) VH: EVQLVQSGAEVKKPGASVKVSCKASGYTFASYGISWVRQAPGQGLEWMGWISAYNGNTNYAQKLQGRVTMTTDTSTSTAYMELRSLRSDDTAVYYCATIDTANAFGIWGQGTMVTVSS VL: QSVLTQPPSVSAAPGQKVTISCSGSSSNIGNNYVSWYQQLPGTAPKLLIYDNNKRPSGIPDRFSGSKSGTSATLGITGLQTGDEADYYCGTWDSSLSGVVFGGGTKLTVL	155	2.05	1.2
anti-P-cadherin scFv 153 alanine-mutant H2.3-Ala (scFv, V domains shown, scFv on phage) VH: EVQLVQSGAEVKKPGASVKVSCKASGYTFTSYGISWVRQAPGQGLEWMGWIAAYNGNTNYAQKLQGRVTMTTDTSTSTAYMELRSLRSDDTAVYYCATIDTANAFGIWGQGTMVTVSS VL: QSVLTQPPSVSAAPGQKVTISCSGSSSNIGNNYVSWYQQLPGTAPKLLIYDNNKRPSGIPDRFSGSKSGTSATLGITGLQTGDEADYYCGTWDSSLSGVVFGGGTKLTVL	138	1.83	0.8
anti-P-cadherin scFv 153 alanine-mutant H1.9-Ala (scFv, V domains shown, scFv on phage) VH: EVQLVQSGAEVKKPGASVKVSCKASGYTFTSYGASWVRQAPGQGLEWMGWISAYNGNTNYAQKLQGRVTMTTDTSTSTAYMELRSLRSDDTAVYYCATIDTANAFGIWGQGTMVTVSS VL: QSVLTQPPSVSAAPGQKVTISCSGSSSNIGNNYVSWYQQLPGTAPKLLIYDNNKRPSGIPDRFSGSKSGTSATLGITGLQTGDEADYYCGTWDSSLSGVVFGGGTKLTVL	167	2.21	1.4
anti-P-cadherin scFv 153 alanine-mutant H1.3-Ala (scFv, V domains shown, scFv on phage) VH: EVQLVQSGAEVKKPGASVKVSCKASGYAFTSYGISWVRQAPGQGLEWMGWISAYNGNTNYAQKLQGRVTMTTDTSTSTAYMELRSLRSDDTAVYYCATIDTANAFGIWGQGTMVTVSS VL: QSVLTQPPSVSAAPGQKVTISCSGSSSNIGNNYVSWYQQLPGTAPKLLIYDNNKRPSGIPDRFSGSKSGTSATLGITGLQTGDEADYYCGTWDSSLSGVVFGGGTKLTVL	174	2.3	1.6
